For data set [1], the target named is Tomato SlDXS1, truncated version lacking the N-terminal plastid targeting peptide, 6xHis-tagged (Solanum lycopersicum (tomato)). In words: dynamic light scattering.
Data set [2] has the same target. Kind of data set: cross-linking.
Data set [3] deals with the molecule itself. In words: cross-linking.
Data set [4] deals with the molecule itself. In words: SDS-PAGE with non-denaturing loading buffer and immunoblot.

In the case of “Tomato SlDXS1, truncated version lacking the N-terminal plastid targeting peptide, 6xHis-tagged (enzyme)”, the stoichiometry N in data set [1] and in data set [2] was 2 each time.

B1: Escherichia coli deoxyxylulose 5-phosphate synthase (EcDXS), 6xHis-tagged, full length (enzyme)
chain: MSFDIAKYPTLALVDSTQELRLLPKESLPKLCDELRRYLLDSVSRSSGHFASGLGTVELTVALHYVYNTPFDQLIWDVGHQAYPHKILTGRRDKIGTIRQKGGLHPFPWRGESEYDVLSVGHSSTSISAGIGIAVAAEKEGKNRRTVCVIGDGAITAGMAFEAMNHAGDIRPDMLVILNDNEMSISENVGALNNHLAQLLSGKLYSSLREGGKKVFSGVPPIKELLKRTEEHIKGMVVPGTLFEELGFNYIGPVDGHDVLGLITTLKNMRDLKGPQFLHIMTKKGRGYEPAEKDPITFHAVPKFDPSSGCLPKSSGGLPSYSKIFGDWLCETAAKDNKLMAITPAMREGSGMVEFSRKFPDRYFDVAIAEQHAVTFAAGLAIGGYKPIVAIYSTFLQRAYDQVLHDVAIQKLPVLFAIDRAGIVGADGQTHQGAFDLSYLRCIPEMVIMTPSDENECRQMLYTGYHYNDGPSAVRYPRGNAVGVELTPLEKLPIGKGIVKRRGEKLAILNFGTLMPEAAKVAESLNATLVDMRFVKPLDEALILEMAASHEALVTVEENAIMGGAGSGVNEVLMAHRKPVPVLNIGLPDFFIPQGTQEEMRAELGLDAAGMEAKIKAWLA
For the molecule B1, the “stoichiometry N” value in data set [3] stood at 2.

B2: Tomato SlDXS1, full-length protein with C-terminal myc tag (pGWB420-SlDXS1), expressed in N. benthamiana leaves (enzyme)
chain: SLSESGEYYTQRPPTPILDTVNYPIHMKNLSLKELKQLADELRSDTIFNVSKTGGHLGSSLGVVELTVALHYVFNAPQDRILWDVGHQSYPHKILTGRRDKMSTLRQTDGLAGFTKRSESEYDCFGTGHSSTTISAGLGMAVGRDLKGRNNNVIAVIGDGAMTAGQAYEAMNNAGYLDSDMIVILNDNRQVSLPTATLDGPVAPVGALSSALSRLQSNRPLRELREVAKGVTKQIGGPMHELAAKVDEYARGMISGSGSTLFEELGLYYIGPVDGHNIDDLIAILKEVRSTKTTGPVLIHVVTEKGRGYPYAERAADKYHGVAKFDPATGKQFKASAKTQSYTTYFAEALIAEAEADKDIVAIHAAMGGGTGMNLFHRRFPTRCFDVGIAEQHAVTFAAGLACEGIKPFCAIYSSFMQRAYDQVVHDVDLQKLPVRFAMDRAGLVGADGPTHCGAFDVTYMACLPNMVVMAPSDEAELFHMVATAAAIDDRPSCFRYPRGNGIGVELPAGNKGIPLEVGKGRILIEGERVALLGYGSAVQNCLDAAIVLESRGLQVTVADARFCKPLDHALIRSLAKSHEVLITVEEGSIGGFGSHVVQFMALDGLLDGKLKWRPIVLPDRYIDHGSPVDQLAEAGLTPSHIAATVFNILGQTREALEVMT
Consider B2, for which, in data set [4], the “stoichiometry N” value worked out at 2.

Source of the values: article doi:10.1101/2022.06.12.495819 (bioRxiv, 2022).
